In patent US20140087995A1 (published 2014):
Numbered stars: 1 amine (or outer) side, 2 acyl side, 3 side chain; on linkers, the order of the positions; unused ones are H or OH. Bridge positions count the residues as written; N and C are the ends. Side chains are listed from the residue outwards. Ends that are not written are not given here. * marks the point of attachment. C20 diacid = O=C(O)CCCCCCCCCCCCCCCCCCC(=O)*; γGlu = O=C(O)[C@H](CCC(=O)[*:2])N[*:1]; AEEA = NCCOCCOCC(=O)O

Tests used:
[1] = target: T1, human calcitonin receptor (human, UniProt P30988 25-474); assay: IC50 at hCTR divided by IC50 at hAmylin-R (SPA competition assays V and VII)
T1 construct: whole, on cells; Assayed as cell membranes of BHK tk'ts 13 cells stably transfected with the human calcitonin receptor (Assay VII); also called hCTR; hCT
T1 sequence (looked up): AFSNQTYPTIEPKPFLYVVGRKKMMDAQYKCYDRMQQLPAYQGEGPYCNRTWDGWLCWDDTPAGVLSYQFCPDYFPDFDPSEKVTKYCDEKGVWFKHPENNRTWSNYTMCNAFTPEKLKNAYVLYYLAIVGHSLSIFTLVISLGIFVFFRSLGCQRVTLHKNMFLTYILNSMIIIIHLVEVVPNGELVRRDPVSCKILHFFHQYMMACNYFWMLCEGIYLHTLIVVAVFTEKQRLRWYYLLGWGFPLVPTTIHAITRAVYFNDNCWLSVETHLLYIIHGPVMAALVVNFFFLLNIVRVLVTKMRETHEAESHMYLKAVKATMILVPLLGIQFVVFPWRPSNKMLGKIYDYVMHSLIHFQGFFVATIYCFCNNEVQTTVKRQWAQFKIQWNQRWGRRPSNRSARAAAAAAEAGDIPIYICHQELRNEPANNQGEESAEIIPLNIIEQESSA
Outline: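 IC₅₀ values were derived by one-site competition analysis of SPA counts. Cell membranes (35 ng/μL) with SPA beads were incubated with test compounds for 120 min at 25° C in Hepes buffer, pH 7.4, containing CaCl2, MgCl₂, OA and Tween20.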

[2] = target: T1, human calcitonin receptor; assay: SPA competition vs 125I-calcitonin, membranes of BHK cells with human calcitonin receptor (Assay VII)
Outline: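 BHK hCTR membranes 35 ng/μL + SPA beads 0.05 mg/well; buffer 50 mM Hepes pH 7.4, 1 mM CaCl2, 5 mM MgCl₂, 0.1% OA, 0.02% Tween20. 120 min, 25° C., shaking. Scintillation count; IC50 by one-site binding competition.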

B1: N^ε1-[2-[2-[2-[[(4S)-4-carboxy-4-(19-carboxynonadecanoylamino)butanoyl]amino]ethoxy]ethoxy]acetyl]-[Arg17,Pro21,Pro27,Pro28,Pro34]-h-amylin (peptide)
peptide: K([AEEA-γGlu-C20 diacid])CNTATCATQRLANFLRHSSPNFGAIPPSTNVGPNTY-NH2
modifications: disulfide 2-7; N-terminus assumed
SMILES: CC[C@H](C)[C@H](NC(=O)[C@H](C)NC(=O)CNC(=O)[C@H](Cc1ccccc1)NC(=O)[C@H](CC(N)=O)NC(=O)[C@@H]1CCCN1C(=O)[C@H](CO)NC(=O)[C@H](CO)NC(=O)[C@H](Cc1c[nH]cn1)NC(=O)[C@H](CCCNC(=N)N)NC(=O)[C@H](CC(C)C)NC(=O)[C@H](Cc1ccccc1)NC(=O)[C@H](CC(N)=O)NC(=O)[C@H](C)NC(=O)[C@H](CC(C)C)NC(=O)[C@H](CCCNC(=N)N)NC(=O)[C@H](CCC(N)=O)NC(=O)[C@@H](NC(=O)[C@H](C)NC(=O)[C@@H]1CSSC[C@H](NC(=O)[C@@H](N)CCCCNC(=O)COCCOCCNC(=O)CC[C@H](NC(=O)CCCCCCCCCCCCCCCCCCC(=O)O)C(=O)O)C(=O)N[C@@H](CC(N)=O)C(=O)N[C@@H]([C@@H](C)O)C(=O)N[C@@H](C)C(=O)N[C@@H]([C@@H](C)O)C(=O)N1)[C@@H](C)O)C(=O)N1CCC[C@H]1C(=O)N1CCC[C@H]1C(=O)N[C@@H](CO)C(=O)N[C@H](C(=O)N[C@@H](CC(N)=O)C(=O)N[C@H](C(=O)NCC(=O)N1CCC[C@H]1C(=O)N[C@@H](CC(N)=O)C(=O)N[C@H](C(=O)N[C@@H](Cc1ccc(O)cc1)C(N)=O)[C@@H](C)O)C(C)C)[C@@H](C)O
notes: also called compound 55
In the case of B1, the “Ratio hCT/hAmylin binding” value [1] is reported as 51.8 and the IC50 [2] is reported as 2.17 nM.

B2: N^ε1-[2-[2-[2-[[(4S)-4-carboxy-4-(19-carboxynonadecanoylamino)butanoyl]amino]ethoxy]ethoxy]acetyl]-[Arg17,Pro21,Pro27,Pro29,Pro31]-h-amylin (peptide)
peptide: K([AEEA-γGlu-C20 diacid])CNTATCATQRLANFLRHSSPNFGAIPSPTPVGSNTY-NH2
modifications: disulfide 2-7; N-terminus assumed
SMILES: CC[C@H](C)[C@H](NC(=O)[C@H](C)NC(=O)CNC(=O)[C@H](Cc1ccccc1)NC(=O)[C@H](CC(N)=O)NC(=O)[C@@H]1CCCN1C(=O)[C@H](CO)NC(=O)[C@H](CO)NC(=O)[C@H](Cc1c[nH]cn1)NC(=O)[C@H](CCCNC(=N)N)NC(=O)[C@H](CC(C)C)NC(=O)[C@H](Cc1ccccc1)NC(=O)[C@H](CC(N)=O)NC(=O)[C@H](C)NC(=O)[C@H](CC(C)C)NC(=O)[C@H](CCCNC(=N)N)NC(=O)[C@H](CCC(N)=O)NC(=O)[C@@H](NC(=O)[C@H](C)NC(=O)[C@@H]1CSSC[C@H](NC(=O)[C@@H](N)CCCCNC(=O)COCCOCCNC(=O)CC[C@H](NC(=O)CCCCCCCCCCCCCCCCCCC(=O)O)C(=O)O)C(=O)N[C@@H](CC(N)=O)C(=O)N[C@@H]([C@@H](C)O)C(=O)N[C@@H](C)C(=O)N[C@@H]([C@@H](C)O)C(=O)N1)[C@@H](C)O)C(=O)N1CCC[C@H]1C(=O)N[C@@H](CO)C(=O)N1CCC[C@H]1C(=O)N[C@H](C(=O)N1CCC[C@H]1C(=O)N[C@H](C(=O)NCC(=O)N[C@@H](CO)C(=O)N[C@@H](CC(N)=O)C(=O)N[C@H](C(=O)N[C@@H](Cc1ccc(O)cc1)C(N)=O)[C@@H](C)O)C(C)C)[C@@H](C)O
notes: also called compound 54
B2 was tested, and the “Ratio hCT/hAmylin binding” value [1] was 146 and the IC50 [2] was 4.38 nM.

B3: N^ε1-[2-[2-[2-[[(4S)-4-carboxy-4-(19-carboxynonadecanoylamino)butanoyl]amino]ethoxy]ethoxy]acetyl]-[Arg17,Pro21,Pro27,Pro34]-h-amylin (peptide)
peptide: K([AEEA-γGlu-C20 diacid])CNTATCATQRLANFLRHSSPNFGAIPSSTNVGPNTY-NH2
modifications: disulfide 2-7; N-terminus assumed
SMILES: CC[C@H](C)[C@H](NC(=O)[C@H](C)NC(=O)CNC(=O)[C@H](Cc1ccccc1)NC(=O)[C@H](CC(N)=O)NC(=O)[C@@H]1CCCN1C(=O)[C@H](CO)NC(=O)[C@H](CO)NC(=O)[C@H](Cc1c[nH]cn1)NC(=O)[C@H](CCCNC(=N)N)NC(=O)[C@H](CC(C)C)NC(=O)[C@H](Cc1ccccc1)NC(=O)[C@H](CC(N)=O)NC(=O)[C@H](C)NC(=O)[C@H](CC(C)C)NC(=O)[C@H](CCCNC(=N)N)NC(=O)[C@H](CCC(N)=O)NC(=O)[C@@H](NC(=O)[C@H](C)NC(=O)[C@@H]1CSSC[C@H](NC(=O)[C@@H](N)CCCCNC(=O)COCCOCCNC(=O)CC[C@H](NC(=O)CCCCCCCCCCCCCCCCCCC(=O)O)C(=O)O)C(=O)N[C@@H](CC(N)=O)C(=O)N[C@@H]([C@@H](C)O)C(=O)N[C@@H](C)C(=O)N[C@@H]([C@@H](C)O)C(=O)N1)[C@@H](C)O)C(=O)N1CCC[C@H]1C(=O)N[C@@H](CO)C(=O)N[C@@H](CO)C(=O)N[C@H](C(=O)N[C@@H](CC(N)=O)C(=O)N[C@H](C(=O)NCC(=O)N1CCC[C@H]1C(=O)N[C@@H](CC(N)=O)C(=O)N[C@H](C(=O)N[C@@H](Cc1ccc(O)cc1)C(N)=O)[C@@H](C)O)C(C)C)[C@@H](C)O
notes: also called compound 50
With B3 the “Ratio hCT/hAmylin binding” value [1] was 36 and the IC50 [2] was 1.38 nM.

B4: N^ε1-[2-[2-[2-[[(4S)-4-carboxy-4-(19-carboxynonadecanoylamino)butanoyl]amino]ethoxy]ethoxy]acetyl]-[Arg17,Pro21,Pro27,Pro31,His35]-h-amylin (peptide)
peptide: K([AEEA-γGlu-C20 diacid])CNTATCATQRLANFLRHSSPNFGAIPSSTPVGSHTY-NH2
modifications: disulfide 2-7; N-terminus assumed
SMILES: CC[C@H](C)[C@H](NC(=O)[C@H](C)NC(=O)CNC(=O)[C@H](Cc1ccccc1)NC(=O)[C@H](CC(N)=O)NC(=O)[C@@H]1CCCN1C(=O)[C@H](CO)NC(=O)[C@H](CO)NC(=O)[C@H](Cc1c[nH]cn1)NC(=O)[C@H](CCCNC(=N)N)NC(=O)[C@H](CC(C)C)NC(=O)[C@H](Cc1ccccc1)NC(=O)[C@H](CC(N)=O)NC(=O)[C@H](C)NC(=O)[C@H](CC(C)C)NC(=O)[C@H](CCCNC(=N)N)NC(=O)[C@H](CCC(N)=O)NC(=O)[C@@H](NC(=O)[C@H](C)NC(=O)[C@@H]1CSSC[C@H](NC(=O)[C@@H](N)CCCCNC(=O)COCCOCCNC(=O)CC[C@H](NC(=O)CCCCCCCCCCCCCCCCCCC(=O)O)C(=O)O)C(=O)N[C@@H](CC(N)=O)C(=O)N[C@@H]([C@@H](C)O)C(=O)N[C@@H](C)C(=O)N[C@@H]([C@@H](C)O)C(=O)N1)[C@@H](C)O)C(=O)N1CCC[C@H]1C(=O)N[C@@H](CO)C(=O)N[C@@H](CO)C(=O)N[C@H](C(=O)N1CCC[C@H]1C(=O)N[C@H](C(=O)NCC(=O)N[C@@H](CO)C(=O)N[C@@H](Cc1c[nH]cn1)C(=O)N[C@H](C(=O)N[C@@H](Cc1ccc(O)cc1)C(N)=O)[C@@H](C)O)C(C)C)[C@@H](C)O
notes: also called compound 57
B4 was tested, and the “Ratio hCT/hAmylin binding” value [1] was 133 and the IC50 [2] was 15.3 nM.

B5: N^ε1-[2-[2-[2-[[(4S)-4-carboxy-4-(19-carboxynonadecanoylamino)butanoyl]amino]ethoxy]ethoxy]acetyl]-[Arg17,Pro21,Pro27,Pro29,Pro34]-h-amylin (peptide)
peptide: K([AEEA-γGlu-C20 diacid])CNTATCATQRLANFLRHSSPNFGAIPSPTNVGPNTY-NH2
modifications: disulfide 2-7; N-terminus assumed
SMILES: CC[C@H](C)[C@H](NC(=O)[C@H](C)NC(=O)CNC(=O)[C@H](Cc1ccccc1)NC(=O)[C@H](CC(N)=O)NC(=O)[C@@H]1CCCN1C(=O)[C@H](CO)NC(=O)[C@H](CO)NC(=O)[C@H](Cc1c[nH]cn1)NC(=O)[C@H](CCCNC(=N)N)NC(=O)[C@H](CC(C)C)NC(=O)[C@H](Cc1ccccc1)NC(=O)[C@H](CC(N)=O)NC(=O)[C@H](C)NC(=O)[C@H](CC(C)C)NC(=O)[C@H](CCCNC(=N)N)NC(=O)[C@H](CCC(N)=O)NC(=O)[C@@H](NC(=O)[C@H](C)NC(=O)[C@@H]1CSSC[C@H](NC(=O)[C@@H](N)CCCCNC(=O)COCCOCCNC(=O)CC[C@H](NC(=O)CCCCCCCCCCCCCCCCCCC(=O)O)C(=O)O)C(=O)N[C@@H](CC(N)=O)C(=O)N[C@@H]([C@@H](C)O)C(=O)N[C@@H](C)C(=O)N[C@@H]([C@@H](C)O)C(=O)N1)[C@@H](C)O)C(=O)N1CCC[C@H]1C(=O)N[C@@H](CO)C(=O)N1CCC[C@H]1C(=O)N[C@H](C(=O)N[C@@H](CC(N)=O)C(=O)N[C@H](C(=O)NCC(=O)N1CCC[C@H]1C(=O)N[C@@H](CC(N)=O)C(=O)N[C@H](C(=O)N[C@@H](Cc1ccc(O)cc1)C(N)=O)[C@@H](C)O)C(C)C)[C@@H](C)O
notes: also called compound 56
For B5, the “Ratio hCT/hAmylin binding” value [1] was 42.6 and the IC50 [2] was 2.09 nM.

B6: N^ε1-[2-[2-[2-[[(4S)-4-carboxy-4-(19-carboxynonadecanoylamino)butanoyl]amino]ethoxy]ethoxy]acetyl]-[Arg17,Pro21,Pro27,Pro34,His35]-h-amylin (peptide)
peptide: K([AEEA-γGlu-C20 diacid])CNTATCATQRLANFLRHSSPNFGAIPSSTNVGPHTY-NH2
modifications: disulfide 2-7; N-terminus assumed
SMILES: CC[C@H](C)[C@H](NC(=O)[C@H](C)NC(=O)CNC(=O)[C@H](Cc1ccccc1)NC(=O)[C@H](CC(N)=O)NC(=O)[C@@H]1CCCN1C(=O)[C@H](CO)NC(=O)[C@H](CO)NC(=O)[C@H](Cc1c[nH]cn1)NC(=O)[C@H](CCCNC(=N)N)NC(=O)[C@H](CC(C)C)NC(=O)[C@H](Cc1ccccc1)NC(=O)[C@H](CC(N)=O)NC(=O)[C@H](C)NC(=O)[C@H](CC(C)C)NC(=O)[C@H](CCCNC(=N)N)NC(=O)[C@H](CCC(N)=O)NC(=O)[C@@H](NC(=O)[C@H](C)NC(=O)[C@@H]1CSSC[C@H](NC(=O)[C@@H](N)CCCCNC(=O)COCCOCCNC(=O)CC[C@H](NC(=O)CCCCCCCCCCCCCCCCCCC(=O)O)C(=O)O)C(=O)N[C@@H](CC(N)=O)C(=O)N[C@@H]([C@@H](C)O)C(=O)N[C@@H](C)C(=O)N[C@@H]([C@@H](C)O)C(=O)N1)[C@@H](C)O)C(=O)N1CCC[C@H]1C(=O)N[C@@H](CO)C(=O)N[C@@H](CO)C(=O)N[C@H](C(=O)N[C@@H](CC(N)=O)C(=O)N[C@H](C(=O)NCC(=O)N1CCC[C@H]1C(=O)N[C@@H](Cc1c[nH]cn1)C(=O)N[C@H](C(=O)N[C@@H](Cc1ccc(O)cc1)C(N)=O)[C@@H](C)O)C(C)C)[C@@H](C)O
notes: also called compound 58
For B6, the “Ratio hCT/hAmylin binding” value [1] was 109 and the IC50 [2] was 9.63 nM.
